Laboratory results published in US20110191903A1, “ENGINEERING PLANT RESISTANCE TO DISEASES CAUSED BY PATHOGENS” (Pioneer Hi-Bred International, Inc., priority 2009, published 2011).

Assays:
Format in all cases: biochemical, Ceriporiopsis subvermispora
[1] = substrate: O=C(O)C(=O)O; assay: Oxalate oxidase kinetics, coupled horse radish peroxidase assay, FG10
From the text: (§1) The E. coli expression system was based on the published protocol of Escutia et al. Escutia et al., Cloning and sequencing of two Ceriporiopsis subvermispora bicupin oxalate oxidase allelic isoforms: implications for the reaction specificity of oxalate oxidases and decarboxylases. (2005). The coding sequence for the mature OXOX enzyme was inserted in E. coli expression vector pET32 (Invitrogen) to include a 6× histidine tag at the C-terminus. The resulting expression plasmid was transformed into E. coli strain BL21Star pLysS (Invitrogen).
(§2) E. coli cultures were grown at 37° C. At optical density 0.4, arabinose was added to a concentration or 0.4%. After another hour of growth at 37° C., MnCl2 was added to 5 mM and IPTG to 1 mM. Cultures were then grown at 25° C. for 16 hours. Cells were harvested by centrifugation at 4000 rpm for 10 min. The supernatant was discarded and cell pellets were kept at −80° C. for at least one hour. Pellets were resuspended in total 40 ml of lysis buffer with 50 mM phosphate buffer pH7, 2 mg/ml protease inhibitor (sigma P-8465), 100 mM KCL, 1/1000 lysozyme, 1/2000 endonuclease, and incubated at 37° C. with shaking for one hour, followed by sonication. Cellular debris was removed by centrifugation and the clarified supernatant was poured into a new tube. Nickel resin (Qiagen) was added. After a short period of incubation, the slurry was poured onto a column and washed with buffer. Purified OXOX protein was eluted from the resin in 50 mM succinate pH 5, 100 mM KCl. The E. coli expression procedure was scalable allowing large scale protein production for kinetic analysis as well as small scale production for high throughput screening of libraries.
(§3) Oxalate oxidase enzymatic activity was determined in a coupled reaction. Oxalate oxidase converts oxalic acid to carbon dioxide and hydrogen peroxide. In the presence of horse radish peroxidase, hydrogen peroxide reacts with 3-methyl-2-benzothiazolinone hydrazone (MBTH) and N,N-dimethylaniline (DMA) to form indamine dye, which can be detected spectrophotmetrically or colorimetrically as described by Laker, M. F., Hoffman, A. F., and Meeuse, J. D. (1980) Clinical Chemistry 26, 827-830. The coupled reaction was used for characterization of oxalate oxidase kinetic properties as well as in a screening procedure to identify oxalate oxidase variants with improved enzymatic properties.
(§4) DNA shuffling was performed as described elsewhere herein. A polymerase chain reaction product corresponding to the OXOX-C coding sequence was fragmented by limited nuclease treatment. Synthetic oligonucleotides encoding sequence diversity from oxalate decarboxylase sequences found in public databases were added. A polymerase chain reaction procedure was performed on the mixture to yield a library of full length OXOX-C coding sequences with additional diversity incorporated. The resulting library was inserted in expression vector pET32, E. coli cells were transformed and protein was expressed, as described in Example 2. A tiered screening strategy was devised based on the OXOX protein expression and enzymatic activity determination procedures described in Examples 2 and 3, respectively. A high throughput screening process based on colorimetric determination of OXOX activity was utilized to identify individual E. coli strains harboring active OXOX variants. These OXOX-active strains were reassayed using quantitative spectrophotometric determination of OXOX activity. […] Three rounds of this iterative screening and selection procedure were completed, and OXOX variants with up to 8-fold improved activity were identified
(§5) More modest improvements in Km and Kcat were observed under lower pH conditions. Coupled reaction was preformed as described in Example 3. Enzyme kinetic parameters were determined by standard methods as described in Segel (1976) Biochemical calculations, 2nd Edition. John Wiley & Sons, London, New York, Sydney, Toronto.

[2] = substrate: O=C(O)C(=O)O; assay: Oxalate oxidase kinetics, coupled horse radish peroxidase assay, FG23
From the text: as §1, §2, §3, §4, §5

[3] = substrate: O=C(O)C(=O)O; assay: Oxalate oxidase kinetics, coupled horse radish peroxidase assay, OXOX-G
From the text: (§6) Sequences of both OXOX C and G alleles were published by Escutia et al., 2005 and were deposited with EMBL: OXOX-C partial genomic DNA, Acession No. AJ746414; OXOX-C partial cDNA, Acession No. AJ563659; OXOX-G genomic DNA, Acession No. AJ563660; OXOX-G cDNA, Acession No. AJ746412. See also, Escutia et al., Cloning and sequencing of two Ceriporiopsis subvermispora bicupin oxalate oxidase allelic isoforms: implications for the reaction specificity of oxalate oxidases and decarboxylases. (2005). Based on published sequence, mature proteins of OXOX C (SEQ ID NO: 21) and G (SEQ ID NO: 22) were synthesized and fused to N-terminal barley alpha amylase signal sequence (BAA ss; SEQ ID NO:3). The fungal OXOX coding sequence was synthesized with codon usage suitable for expression in soybean (FIG. 1A) and E. coli (FIG. 1B).
as §1, §2, §3, §5

[4] = substrate: O=C(O)C(=O)O; assay: Oxalate oxidase kinetics, coupled horse radish peroxidase assay, OXOX-C
From the text: as §6, §1, §2, §3, §5

B1: Ceriporiopsis subvermispora oxalate oxidase OXOX-C variant FG10 (3-FG10), D53N/I60E/E65Q/K72E/S115T/Q171E/R174K/M192V/I278V/Y282F/Y359F/V399I/G436A plus S437, … (protein)
chain: RPTENGPQIVIANNAGTYLPVLRGSGTKSSSAADATQTVPFASDDPNPRLWNIDTKNLEKVTPQRGQLGAEILGPDNLPIDLQNADTLAPPTTDSGSIPNPKWPFALSHNTLYTGGWVRIQNDEVMPIAKAMAGVNMRLEAGAIRELHWHNTPEWAYILKGTTQITAVDENGKNYLANVGPGDLWYFPEGVPHSLQGTDANNEGSEFLLIFPDGTFDSSNQFMITDWLAHTPKDVIAKNFGVDISEFDRLPSHDLYIFPGVAPPLDAKAPEDPQGTVPLPFSFEFSKVKPTQYAGGTVKIADTRTFPIAKTISVAEVTVEPGAMRELHWHPTEDEWTFFIEGQARVTIFAGQSNAQTFDYQGGDIAYIPTAWGHYVENSGNTQLRFLEIFNSPLFEDISLAQWIANTPPAIVKATLQLSDEVINTLNKQKAFVVASD
notes: C-terminal 6xHis, pET32, E. coli, nickel purified
Q: B1 was tested. Which Km ([1]; other: pH 3.8, pH 3.8) did it give?
A: 400 µM

Q: What about the kcat ([1]; other: pH 3.8, pH 3.8) of the same protein?
A: 8.01 s⁻¹

Q: What about the Km ([1]; other: pH 4.8, pH 4.8) of the same protein?
A: 1830 µM

Q: What about the kcat ([1]; other: pH 4.8, pH 4.8) of the same protein?
A: 6.00 s⁻¹

Q: And the Km ([1]; other: pH 5.8, pH 5.8)?
A: 5900 µM

Q: And the kcat ([1]; other: pH 5.8, pH 5.8)?
A: 2.65 s⁻¹

B2: Ceriporiopsis subvermispora oxalate oxidase OXOX-C variant FG23 (3-FG23), … (protein)
chain: RPTENGPQIVIANNAGTYLPVLRGSGTKSSSAADATQTVPFASDDPNPRLWNIDTQDLSVVAPERGPLGAKILGPDNLPIDLQNADTLAPPTTDSGSVPNPKWPFALSHNTLYSGGWVRIQNNEVLPIAKAMAGVNMRLEAGAIRELHWHNTPEWAYILKGTTQITAVDQNGRNYLANVSPGDLWYFPEGIPHSLQGTDANNEGSEFLLIFPDGTFDASNQFMITDWLAHTPKDVIAKNFGVDISEFDRLPSHDLYIFPGVAPPLDAKAPEDPQGTVPLPYSFEFSKVKPTQYAGGTVKIADTRTFPIAKTISVAEVTVEPGAMRELHWHPTEDEWTFFIEGQARVTIFAGQSNAQTYDYQGGDIAYIPTAYGHYVENSGNTQLRFLEIFNSPLFEDVSLAQWIANTPPAIVKATLQLSDEVIDSLNKQKASVVG
Q: How did the Km ([2]; other: pH 3.8, pH 3.8) turn out when B2 was run?
A: 380 µM

Q: What about the kcat ([2]; other: pH 3.8, pH 3.8) of the same protein?
A: 7.06 s⁻¹

Q: What about the Km ([2]; other: pH 4.8, pH 4.8) of the same protein?
A: 1210 µM

Q: And the kcat ([2]; other: pH 4.8, pH 4.8)?
A: 4.62 s⁻¹

Q: What about the Km ([2]; other: pH 5.8, pH 5.8) of the same protein?
A: 5250 µM

Q: And the kcat ([2]; other: pH 5.8, pH 5.8)?
A: 2.61 s⁻¹

B3: Ceriporiopsis subvermispora oxalate oxidase OXOX-G, SEQ ID NO: 19 (Gelatoporia subvermispora) (protein)
chain: RPTGNDVFYLPRAVAVSSAGASSPASLSSGTESSSAAEPTETVPFASDDPNPRLWNIDTQDLSVVAPERGPLGAKIIGPDNLPLDIQNADTLAPPTTDSGSIPNAKWPFALSHNTLYTGGWVRIQNNEVLPIAKAMAGVNMRLEAGTIRELHWHNTPEWAYILKGTTQITAVDENGKNYLANVGPGDLWYFPEGMPHSLQGTNASDEGSEFLLIFPDGTFDASNQFMITDWLAHTPKDVIAKNFGVDISEFDRLPSHDLYIFPGVAPPLDATAPEDPQGTIPLPYSFEFSKVVPTQYAGGTVKIADTRTFPISKTISVAEITVEPGAMRELHWHPTEDEWTFFIEGQARVTLFAGESNAQTYDYQGGDIAYIPTAYGHYVENSGNTTLRFLEIFNSPLFQDVSLTQWLANTPRAIVKATLQLSDNVIDSLNKSKAFVVASD
Q: Which Km ([3]; other: pH 3.8, pH 3.8) does the source give for B3 here?
A: 400 µM

Q: And the kcat ([3]; other: pH 3.8, pH 3.8)?
A: 4.80 s⁻¹

Q: What about the Km ([3]; other: pH 4.8, pH 4.8) of the same protein?
A: 1370 µM

Q: And the kcat ([3]; other: pH 4.8, pH 4.8)?
A: 2.56 s⁻¹

Q: And the Km ([3]; other: pH 5.8, pH 5.8)?
A: 6140 µM

Q: What about the kcat ([3]; other: pH 5.8, pH 5.8) of the same protein?
A: 0.82 s⁻¹

B4: Ceriporiopsis subvermispora oxalate oxidase OXOX-C, SEQ ID NO: 18 (Gelatoporia subvermispora B) (protein)
chain: RPTENGPQIVIANNAGTYLPVLRGSGTKSSSAADATQTVPFASDDPNPRLWDIDTKNLTKVTPERGQLGAKILGPDNLPIDLQNADTLAPPTTDSGSIPNPKWPFALSHNTLYSGGWVRIQNDEVMPIAKAMAGVNMRLEAGAIRELHWHNTPEWAYILKGTTQITAVDQNGRNYLANVGPGDLWYFPEGMPHSLQGTDANNEGSEFLLIFPDGTFDSSNQFMITDWLAHTPKDVIAKNFGVDISEFDRLPSHDLYIFPGVAPPLDAKAPEDPQGTIPLPYSFEFSKVKPTQYAGGTVKIADTRTFPIAKTISVAEVTVEPGAMRELHWHPTEDEWTFFIEGQARVTIFAGQSNAQTYDYQGGDIAYIPTAWGHYVENSGNTTLRFLEIFNSPLFEDVSLAQWIANTPPAIVKATLQLSDEVINTLNKSKAFVVG
Q: Which results are given for B4?
A: Km ([4]; other: pH 3.8, pH 3.8): 350 µM; kcat ([4]; other: pH 3.8, pH 3.8): 5.45 s⁻¹; Km ([4]; other: pH 4.8, pH 4.8): 1240 µM; kcat ([4]; other: pH 4.8, pH 4.8): 2.74 s⁻¹; Km ([4]; other: pH 5.8, pH 5.8): 5950 µM; kcat ([4]; other: pH 5.8, pH 5.8): 0.91 s⁻¹
